According to PMC10663602:

What was measured:
[1] = biological target: hFcα-tFcµ-chi1 (human | Oncorhynchus mykiss (rainbow trout)); assay: SEC; preparative SEC (Superose 6 Increase 10/300) after Ni-NTA; share of pIg and mIg in the total protein purified (Supplementary Fig. 6)
[2] = biological target: hFcα-tFcµ-chi2 (human | Oncorhynchus mykiss (rainbow trout)); assay: as above

percent of the total protein purified that is pIg [1] [%] | percent of the total protein purified that is pIg [2] [%] | Binder
< 30 | – | hFcα-tFcµ-chi1 (protein, here or on the partner: N-glycosylated; polymeric, about a dimer by SEC-MALS. Table prints the same sequence for chi1 and chi2 / N-glycosylated; polymeric, about a dimer by SEC-MALS. Table prints the same sequence for chi1 a) CHPRLSLHRPALEDLLLGSEANLTCTLTGLRDASGVTFTWTPSSGKSAVQGPPERDLCGCYSVSSVLPGCAEPWNHGKTFTCTAAYPESKTPLTATLSKSGNTFRPEVHLLPPPSEELALNELVTLTCLARGFSPKDVLVRWLQGSQELPREKYLTWASRQEPSQGTTTFAVTSILRVAAEDWKKGDTFSCMVGHEALPLAFTNIIMRTIDRTSNQPNLVNLSLNVPQRCMAQ
– | < 30 | hFcα-tFcµ-chi2 (protein, here or on the partner: N-glycosylated; P1 about a tetramer, P2 monomer. Table prints the same sequence for chi1 and chi2 / N-glycosylated; P1 about a tetramer, P2 monomer. Table prints the same sequence for chi1 and chi2) CHPRLSLHRPALEDLLLGSEANLTCTLTGLRDASGVTFTWTPSSGKSAVQGPPERDLCGCYSVSSVLPGCAEPWNHGKTFTCTAAYPESKTPLTATLSKSGNTFRPEVHLLPPPSEELALNELVTLTCLARGFSPKDVLVRWLQGSQELPREKYLTWASRQEPSQGTTTFAVTSILRVAAEDWKKGDTFSCMVGHEALPLAFTNIIMRTIDRTSNQPNLVNLSLNVPQRCMAQ
